The record followed here is publication PMC3561992.

The series concerns the target T1, AtCyp59 full-length (Arabidopsis thaliana, UniProt Q6Q151 1-506).
T1 sequence: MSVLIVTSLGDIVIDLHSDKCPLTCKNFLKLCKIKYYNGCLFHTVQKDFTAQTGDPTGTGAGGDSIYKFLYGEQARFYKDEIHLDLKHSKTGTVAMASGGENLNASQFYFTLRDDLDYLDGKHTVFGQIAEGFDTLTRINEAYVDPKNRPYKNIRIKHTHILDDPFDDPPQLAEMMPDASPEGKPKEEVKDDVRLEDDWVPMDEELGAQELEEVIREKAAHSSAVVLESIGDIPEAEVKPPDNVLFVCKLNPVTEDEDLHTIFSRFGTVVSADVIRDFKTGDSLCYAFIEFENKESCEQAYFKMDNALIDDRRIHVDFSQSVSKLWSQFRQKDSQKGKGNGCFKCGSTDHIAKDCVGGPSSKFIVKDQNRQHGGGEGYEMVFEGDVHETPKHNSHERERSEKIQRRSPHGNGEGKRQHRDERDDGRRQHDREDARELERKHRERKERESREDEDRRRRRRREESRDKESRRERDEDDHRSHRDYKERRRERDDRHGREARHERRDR
Description: EMSA. Background: A gel shift assay detects complexes by their altered migration in electrophoresis.

The term Kd denotes the constant that tells how readily two partners part at equilibrium. Lower therefore signals tighter binding. In turn, GUUGCCG (ssRNA) yielded a Kd of 120 ± 25 nM.
Next, GUCGCCG (ssRNA): 120 ± 25 nM; GUCGCCA (ssRNA): 120 ± 25 nM.
GAUGCCA (ssRNA) gave a Kd of 120 ± 25 nM.
With GCGGCCG (ssRNA), binding was characterised by a dissociation constant (Kd) of 120 ± 25 nM.
Next, GCUGCCG (ssRNA): 120 ± 25 nM.
With GCGGCCA (ssRNA), the Kd is 120 ± 25 nM.
Consider GUAGCCG (ssRNA), for which binding was characterised by a dissociation constant (Kd) of 120 ± 25 nM.
In turn, GUGGCCG (ssRNA) gave a Kd of 120 ± 25 nM.
GGUGCCG (ssRNA): the affinity, expressed as Kd, was 120 ± 25 nM.
GCCGCCA (ssRNA) yielded a Kd of 120 ± 25 nM.
With GUAGCCA (ssRNA), the Kd stood at 120 ± 25 nM.
Next, GACGCCA (ssRNA): 120 ± 25 nM; GUGGCCA (ssRNA): 120 ± 25 nM.
Next, GAUGCCG (ssRNA): 120 ± 25 nM; GGAGCCA (ssRNA): 120 ± 25 nM; GCCGCCG (ssRNA): 120 ± 25 nM.
